Assay results from patent US20230251254A1, “METHOD FOR EVALUATING INTERACTION BETWEEN IMMOBILIZED SUBSTANCE IMMOBILIZED DIRECTLY OR INDIRECTLY ON SUBSTRATE AND PROXIMITY-DEPENDENT MODIFYING ENZYMELABELED SUBSTANCE TO BE ANALYZED” (CELLFREE SCIENCES CO.,LTD., priority 2020, published 2023).
Positions count from the first letter of the chain named. Names may count otherwise. Blank lines part the entries; values can stand above or below the molecule they belong to.

Key:
[1] = molecular target: T1, FLAG-GST-fused RelA (UniProt Q04206 1-551); test: proximity-biotinylation bead array, streptavidin-HRP luminescence; labeling 26°C 1 h; exposure 3 min; the filing calls the signal on this pair non-specific
T1 construct: Immobilized on glutathione magnetic beads on the non-denatured protein array; Order of the parts follows the printed name FLAG-GST; also called FLAG-GST-fused immobilized substance (RelA); not shown: FLAG tag protein; GST protein (glutathione S-transferase tag)
T1 sequence (Q04206 other isoform, or with tags, fused parts or gaps): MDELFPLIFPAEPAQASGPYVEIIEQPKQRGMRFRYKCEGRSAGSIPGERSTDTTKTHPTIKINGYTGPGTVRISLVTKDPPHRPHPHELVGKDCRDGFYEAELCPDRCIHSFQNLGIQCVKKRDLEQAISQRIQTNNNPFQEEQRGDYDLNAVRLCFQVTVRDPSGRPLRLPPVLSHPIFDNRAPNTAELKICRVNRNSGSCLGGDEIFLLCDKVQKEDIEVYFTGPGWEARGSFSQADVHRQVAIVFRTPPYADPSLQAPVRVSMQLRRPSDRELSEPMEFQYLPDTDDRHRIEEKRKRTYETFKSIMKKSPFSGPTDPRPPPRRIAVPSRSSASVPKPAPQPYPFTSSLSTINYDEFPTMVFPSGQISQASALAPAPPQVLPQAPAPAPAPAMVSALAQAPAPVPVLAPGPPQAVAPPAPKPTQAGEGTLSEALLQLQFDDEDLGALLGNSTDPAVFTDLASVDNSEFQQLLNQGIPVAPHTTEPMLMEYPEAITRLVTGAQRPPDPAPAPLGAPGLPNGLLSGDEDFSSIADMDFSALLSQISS

[2] = molecular target: T1, FLAG-GST-fused RelA; test: proximity-biotinylation bead array, streptavidin-HRP luminescence; labeling 26°C 3 h; exposure 3 min; the filing calls the signal on this pair non-specific
[3] = molecular target: T1, FLAG-GST-fused RelA; test: proximity-biotinylation bead array, streptavidin-HRP luminescence; labeling 26°C 30 min; exposure 3 min; the filing calls the signal on this pair non-specific
[4] = molecular target: T1, FLAG-GST-fused RelA; test: proximity-biotinylation bead array, streptavidin-HRP luminescence; labeling 37°C 24 h; exposure 10 min
[5] = molecular target: T2, FLAG-GST-fused MDM2 (UniProt P23804 1-489); test: as above
T2 construct: Immobilized on glutathione magnetic beads on the non-denatured protein array; Order of the parts follows the printed name FLAG-GST; also called FLAG-GST-fused immobilized substance (MDM2); not shown: FLAG tag protein; GST protein (glutathione S-transferase tag)
T2 sequence (P23804 whole entry, the tested form may be a part): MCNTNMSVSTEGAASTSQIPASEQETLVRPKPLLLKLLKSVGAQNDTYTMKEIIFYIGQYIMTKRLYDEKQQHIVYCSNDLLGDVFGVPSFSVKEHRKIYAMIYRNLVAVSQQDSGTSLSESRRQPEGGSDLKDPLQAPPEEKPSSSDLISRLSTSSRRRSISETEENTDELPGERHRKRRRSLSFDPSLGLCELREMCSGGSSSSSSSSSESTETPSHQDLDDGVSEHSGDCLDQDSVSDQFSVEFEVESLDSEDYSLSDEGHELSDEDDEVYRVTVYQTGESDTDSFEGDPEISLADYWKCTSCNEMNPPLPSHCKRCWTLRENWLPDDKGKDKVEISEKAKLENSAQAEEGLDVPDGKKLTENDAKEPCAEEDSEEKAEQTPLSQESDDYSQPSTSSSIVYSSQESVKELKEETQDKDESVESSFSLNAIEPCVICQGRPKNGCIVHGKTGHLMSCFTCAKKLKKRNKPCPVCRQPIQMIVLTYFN

[6] = molecular target: T3, MDM2 (Mus musculus, UniProt P23804); test: AirID proximity-dependent biotin labeling on non-denatured protein array, TP53 and MDM2 (Example 2); format: binding; details: AirID-fused TP53; FLAG-GST-MDM2 on magnetic beads; HRP-labeled streptavidin
T3 construct: made in house; host or cells: wheat cell-free protein synthesis
T3 sequence (P23804 whole entry, the tested form may be a part): as above
Description: (§1) As a substance to be analyzed, template DNA in which TP53 (SEQ ID NO: 4) or Iκβα (SEQ ID NO: 5) was fused to AirID (SEQ ID NO: 3) was synthesized. As an immobilized substance (target protein), template DNA in which MDM2 (SEQ ID NO: 10), RelA (SEQ ID NO: 11), or any one of 10 kinds of proteins (controls) for comparison was fused to a FLAG™ tag protein and a GST protein was synthesized.
(§2) Thus, a non-denatured protein array was produced.

[7] = molecular target: T2, FLAG-GST-fused MDM2; test: proximity-biotinylation bead array, streptavidin-HRP luminescence; labeling 26°C 1 h; exposure 3 min; the filing calls the signal on this pair non-specific
[8] = molecular target: T2, FLAG-GST-fused MDM2; test: proximity-biotinylation bead array, streptavidin-HRP luminescence; labeling 26°C 3 h; exposure 3 min; the filing calls the signal on this pair non-specific
[9] = molecular target: T2, FLAG-GST-fused MDM2; test: proximity-biotinylation bead array, streptavidin-HRP luminescence; labeling 26°C 30 min; exposure 3 min; the filing calls the signal on this pair non-specific
[10] = molecular target: T4, RelA (Homo sapiens, UniProt Q04206); test: AirID proximity-dependent biotin labeling on non-denatured protein array, Iκβα and RelA (Example 2); format: binding; details: AirID-fused Iκβα; FLAG-GST-RelA on magnetic beads; HRP-labeled streptavidin
T4 construct: made in house; host or cells: wheat cell-free expression system
T4 sequence (Q04206 1-548 isoform Q04206-4): as the sequence (Q04206 other isoform, or with tags, fused parts or gaps) above
Description: as §1, §2

[11] = molecular target: T2, FLAG-GST-fused MDM2; test: proximity biotinylation by AirID fusion on bead protein array, streptavidin-HRP luminescence image
Description: The washing buffer was removed, and an HRP-labeled streptavidin solution diluted with the reaction buffer was added and allowed to react with the FLAG™-GST-fused immobilized substance on the magnetic beads. In order to remove free streptavidin, the reaction buffer was removed and then washing was performed a plurality of times with a washing buffer. After the removal of the washing buffer, a chemiluminescence reagent was added and subjected to a reaction. The resultant luminescence was detected with LAS4000 (manufactured by GE Healthcare) to provide measurement images.

[12] = molecular target: T2, FLAG-GST-fused MDM2; test: proximity-biotinylation bead array, streptavidin-HRP luminescence; labeling 26°C 1 h; exposure 10 min
[13] = molecular target: T1, FLAG-GST-fused RelA; test: as above
[14] = molecular target: T2, FLAG-GST-fused MDM2; test: proximity-biotinylation bead array, streptavidin-HRP luminescence; labeling 26°C 3 h; exposure 10 min
[15] = molecular target: T1, FLAG-GST-fused RelA; test: as above
[16] = molecular target: T2, FLAG-GST-fused MDM2; test: proximity-biotinylation bead array, streptavidin-HRP luminescence; labeling 26°C 30 min; exposure 10 min
[17] = molecular target: T1, FLAG-GST-fused RelA; test: as above
[18] = molecular target: T2, FLAG-GST-fused MDM2; test: proximity-biotinylation bead array, streptavidin-HRP luminescence; labeling 26°C; exposure 10 min

signal value [1]: > 65000
signal value [2]: > 65000
signal value [3]: 10200
Molecule: TurboID-fused TP53

signal value [4]: 1860
Molecule: BioID-fused TP53

signal value [5]: 4530
Molecule: BioID-fused Iκβα

luminescence (biotin detection) between TP53 and MDM2 [6]: recognized
Molecule: TP53: TP53 (SEQ ID NO: 4), fused to AirID as substance to be analyzed in Example 2

signal value [7]: > 65000
signal value [8]: > 65000
signal value [9]: 7030
Molecule: TurboID-fused Iκβα

luminescence (biotin detection) between Iκβα and RelA [10]: recognized
binding result [11]: no binding
signal value [12]: 690
signal value [13]: 28000
signal value [14]: 520
signal value [15]: 48000
signal value [16]: 370
signal value [17]: 7940
B1: AirID-fused Iκβα (other)
chain: MKDNTVPLTLISILADGEFHSGEQLGEQLGMSRAAINKHIKTLRDWGVDVFRVQGKGYCLPEPIQLLDEEKIRQQLDEGSVTVLPVIDSTNQYLLDRLDELTSGDVCIAEYQQAGRGSRGRKWFSPFGANLYLSMYWRLEQGPAAAMGLSLVIGIVMAETLQKLGADGVRVKWPNDLYLNDRKLAGILVEMTGKTGDAAHIVIGAGINLSMREPETDEVDQSWINLQEAGITIDRNQLAARLIKDLRSALRQFEQQGLAPFLSRWEALDNFINRPVKLIIGDREIHGIARGINEQGALLLEQDGVIKPWIGGEISLRSAMFQAAERPQEWAMEGPRDGLKKERLLDDRHDSGLDSMKDEEYEQMVKELQEIRLEPQEVPRSSEPWKQQLTEDGDSFLHLAIIHEEKALTMEVIRQVKGDLAFLNFQNNLQQTPLHLAVITNQPEIAEALLGAGCDPELRDFRGNTPLHLACEQGCLASVGVLTQSCTTPHLHSILKATNYNGHTCLHLASIHGYLGIVELLVSLGADVNAQEPCNGRTALHLAVDLQNPDLVSLLLKCGADVNRVTYQGYSPYQLTWGRPSTRIQQQLGQLTLENLQMLPESEDEESYDTESEFTEFTEDELPYDDCVFGGQRLTL
notes: Fusion made in a wheat cell-free system; also called AirID-fused substance to be analyzed (Iκβα)

binding result [18]: no binding
signal value [12]: 220
signal value [13]: 10200
signal value [14]: 370
signal value [15]: 51400
signal value [16]: 240
signal value [17]: 9570
B2: AirID-S118G mutant-fused Iκβα (other)
fusion protein: B1 chain with S118G

binding result [18]: no binding
signal value [12]: 310
signal value [13]: 11100
signal value [14]: 330
signal value [15]: 50000
signal value [16]: 320
B3: AVVA-R118S mutant-fused Iκβα (other)
fusion protein: MSEQWSRKREILALLSSGHFVSGEELATQLGISRTAVSKHIAALEEYGVDIYSVKGKGYKLANPISLIDESKLKSAINNRCFYFDEIPSTNGFMLKHAEELKSGDICVAEYQSAGRGSRGRTWVSPYGCHLYFSLYWRFPQGMAQAMGLSLVVACSLVKVLKSFGVDGVGVKWPNDIYLNHKKLAGVLIEMSGQADSECHLVIGIGINMAMSEQQGKKIDQPWSDLSSLTSMPDKTELLIALQKQLKQDLELFEREGLKAFQPRWQEADLFYGKQIKLLMGENQVEGICRGIDEQGAVLLETDDGIQAFIGGEISLRAAMFQAAERPQEWAMEGPRDGLKKERLLDDRHDSGLDSMKDEEYEQMVKELQEIRLEPQEVPRSSEPWKQQLTEDGDSFLHLAIIHEEKALTMEVIRQVKGDLAFLNFQNNLQQTPLHLAVITNQPEIAEALLGAGCDPELRDFRGNTPLHLACEQGCLASVGVLTQSCTTPHLHSILKATNYNGHTCLHLASIHGYLGIVELLVSLGADVNAQEPCNGRTALHLAVDLQNPDLVSLLLKCGADVNRVTYQGYSPYQLTWGRPSTRIQQQLGQLTLENLQMLPESEDEESYDTESEFTEFTEDELPYDDCVFGGQRLTL

binding result [18]: no binding
signal value [12]: 280
signal value [13]: 10100
signal value [14]: 430
signal value [15]: > 65000
signal value [16]: 550
B4: AVVA-R118G,Q141R mutant-fused Iκβα (other)
fusion protein: B3 fusion protein with S118G, Q141R

binding result [18]: no binding
signal value [12]: 190
signal value [13]: 37500
signal value [14]: 230
signal value [15]: > 65000
signal value [16]: 120
signal value [17]: 10400
B5: AVVA-R118S,Q141R mutant-fused Iκβα (other)
fusion protein: B3 fusion protein with Q141R

binding result [18]: no binding
signal value [12]: 230
signal value [14]: 310
signal value [15]: 39400
signal value [16]: 140
signal value [17]: 6900
B6: AVVA-R118G mutant-fused Iκβα (other)
fusion protein: B3 fusion protein with S118G
